Consider 25 variants from the supplement of paper PMC7125110.

B1: glmS ribozyme (parent)
chain: AUAAAAGCGCCAGAACUACAGAAAUGUAGUUGACGAGGAGGAGGUUUAUCGAAUUUUCGGCGGAUGCCUCCAAA

± gives the standard error. This sample holds only a part of the variants without activity.

What all share (conditions): with glucosamine-6-phosphate
Variants of B1 are the subject of series [1]. Put plainly: self-cleavage kobs at 160 uM GlcN6P; higher = faster cleavage; RNA array. The procedure, abridged:
(§1)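 Weighted Michaelis–Menten fits across concentrations supplied kcat and KM, based on kobs from one- or two-exponential decay fits to normalised per-tile medians. The data came from barcoded ribozyme variants transcribed in situ by E. coli RNA polymerase on sequenced MiSeq chips and tracked at 37 °C by a hybridised Cy3 probe. Glucosamine-6-phosphate (40 μM to 10 mM) in HEPES/KCl/Mg(OAc)2 buffer was flowed in.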

Series [2] covers variants of B1. Nature of the series: self-cleavage kobs at 640 uM GlcN6P; higher = faster cleavage; RNA array. The method in brief:
as §1

Variants of B1 are the subject of series [3]. Nature of the series: self-cleavage kobs at 2500 uM GlcN6P; higher = faster cleavage; RNA array. The method in brief:
as §1

Variants of B1 are the subject of series [4]. Nature of the series: self-cleavage kobs at 10000 uM GlcN6P; higher = faster cleavage; RNA array. The method in brief: as §1

A12G G38U A52U A64U: in the series with glucosamine-6-phosphate [1], the “self-cleavage kobs at 160 uM GlcN6P” value is less than 1e-05 s⁻¹. Moreover, the “self-cleavage kobs at 640 uM GlcN6P” value with glucosamine-6-phosphate [2] is less than 1e-05 s⁻¹. Besides, in the series with glucosamine-6-phosphate [3], the “self-cleavage kobs at 2500 uM GlcN6P” value was less than 1e-05 s⁻¹.
For A15U G38U G59U, the “self-cleavage kobs at 160 uM GlcN6P” value with glucosamine-6-phosphate [1] was less than 1e-05 s⁻¹.
Take G51U C61U: the “self-cleavage kobs at 160 uM GlcN6P” value with glucosamine-6-phosphate [1] is less than 1e-05 s⁻¹. For the same variant, the “self-cleavage kobs at 640 uM GlcN6P” value in the series with glucosamine-6-phosphate [2] is less than 1e-05 s⁻¹. Further, the “self-cleavage kobs at 2500 uM GlcN6P” value with glucosamine-6-phosphate [3] is less than 1e-05 s⁻¹. Further, the “self-cleavage kobs at 10000 uM GlcN6P” value with glucosamine-6-phosphate [4] is less than 1e-05 s⁻¹.
On to G44C C61G, for which, in the series with glucosamine-6-phosphate [1], the “self-cleavage kobs at 160 uM GlcN6P” value was less than 1e-05 s⁻¹. In addition, in the series with glucosamine-6-phosphate [2], the “self-cleavage kobs at 640 uM GlcN6P” value was less than 1e-05 s⁻¹. The “self-cleavage kobs at 10000 uM GlcN6P” value with glucosamine-6-phosphate [4] is less than 1e-05 s⁻¹.
Consider C10A A12U U46A, for which the “self-cleavage kobs at 160 uM GlcN6P” value with glucosamine-6-phosphate [1] was less than 1e-05 s⁻¹. For the same variant, the “self-cleavage kobs at 640 uM GlcN6P” value with glucosamine-6-phosphate [2] is less than 1e-05 s⁻¹.
Take C8A C10U U31A: the “self-cleavage kobs at 160 uM GlcN6P” value with glucosamine-6-phosphate [1] was less than 1e-05 s⁻¹. The “self-cleavage kobs at 10000 uM GlcN6P” value with glucosamine-6-phosphate [4] was less than 1e-05 s⁻¹.
Regarding A14G U56G U57C, the “self-cleavage kobs at 160 uM GlcN6P” value in the series with glucosamine-6-phosphate [1] worked out at 3.78e-05 ± 1.6e-05 s⁻¹. For the same variant, the “self-cleavage kobs at 640 uM GlcN6P” value with glucosamine-6-phosphate [2] turned out to be 5.18e-05 ± 1.5e-05 s⁻¹. Also, the “self-cleavage kobs at 2500 uM GlcN6P” value with glucosamine-6-phosphate [3] was 0.000269 ± 8.2e-05 s⁻¹.
Consider C8U C34G G41A, for which, in the series with glucosamine-6-phosphate [1], the “self-cleavage kobs at 160 uM GlcN6P” value is less than 1e-05 s⁻¹. For the same variant, the “self-cleavage kobs at 640 uM GlcN6P” value with glucosamine-6-phosphate [2] was less than 1e-05 s⁻¹.
As for A14U U30A A33U G51A, the “self-cleavage kobs at 160 uM GlcN6P” value in the series with glucosamine-6-phosphate [1] was less than 1e-05 s⁻¹.
As for C11U A12U C71A, in the series with glucosamine-6-phosphate [1], the “self-cleavage kobs at 160 uM GlcN6P” value is 8.52e-05 ± 2.9e-05 s⁻¹. The “self-cleavage kobs at 640 uM GlcN6P” value with glucosamine-6-phosphate [2] was determined as 0.000232 ± 4.5e-05 s⁻¹. Moreover, the “self-cleavage kobs at 2500 uM GlcN6P” value in the series with glucosamine-6-phosphate [3] is 0.000457 ± 8.7e-05 s⁻¹.
The corresponding values for A39U G40A A64G are 0.000419 ± 0.00012 s⁻¹, 0.000775 ± 0.00021 s⁻¹ and 0.00738 ± 0.0025 s⁻¹.
The corresponding values for C8U G9C U31G A33C are less than 1e-05 s⁻¹, less than 1e-05 s⁻¹ and less than 1e-05 s⁻¹.
The corresponding values for U30A U54C C71U are 0.000251 ± 5.9e-05 s⁻¹, 0.00109 ± 0.00025 s⁻¹ and 0.00391 ± 0.0014 s⁻¹.
In the case of G7U A12G U45C U46G C71U, the “self-cleavage kobs at 160 uM GlcN6P” value with glucosamine-6-phosphate [1] is less than 1e-05 s⁻¹. Further, the “self-cleavage kobs at 2500 uM GlcN6P” value with glucosamine-6-phosphate [3] was less than 1e-05 s⁻¹.
As for A14C A36C A52U, the “self-cleavage kobs at 160 uM GlcN6P” value in the series with glucosamine-6-phosphate [1] was less than 1e-05 s⁻¹. Besides, the “self-cleavage kobs at 640 uM GlcN6P” value with glucosamine-6-phosphate [2] is less than 1e-05 s⁻¹. Further, the “self-cleavage kobs at 10000 uM GlcN6P” value with glucosamine-6-phosphate [4] is less than 1e-05 s⁻¹.
Regarding G40U C67G, the “self-cleavage kobs at 160 uM GlcN6P” value with glucosamine-6-phosphate [1] is less than 1e-05 s⁻¹. Moreover, in the series with glucosamine-6-phosphate [2], the “self-cleavage kobs at 640 uM GlcN6P” value was less than 1e-05 s⁻¹.
As for A15G G41U G62U, in the series with glucosamine-6-phosphate [1], the “self-cleavage kobs at 160 uM GlcN6P” value is less than 1e-05 s⁻¹. In addition, in the series with glucosamine-6-phosphate [2], the “self-cleavage kobs at 640 uM GlcN6P” value was less than 1e-05 s⁻¹. In addition, the “self-cleavage kobs at 2500 uM GlcN6P” value with glucosamine-6-phosphate [3] is less than 1e-05 s⁻¹.
Take U31C U54C C67U: in the series with glucosamine-6-phosphate [1], the “self-cleavage kobs at 160 uM GlcN6P” value was 8.1e-05 ± 1.6e-05 s⁻¹. In addition, the “self-cleavage kobs at 640 uM GlcN6P” value in the series with glucosamine-6-phosphate [2] came out at 0.000176 ± 3.7e-05 s⁻¹. Moreover, the “self-cleavage kobs at 2500 uM GlcN6P” value with glucosamine-6-phosphate [3] worked out at 0.000804 ± 0.0002 s⁻¹.
With G37U C70U C71A, in the series with glucosamine-6-phosphate [1], the “self-cleavage kobs at 160 uM GlcN6P” value is less than 1e-05 s⁻¹.
Take C8G G21U C34A A64G: the “self-cleavage kobs at 160 uM GlcN6P” value in the series with glucosamine-6-phosphate [1] was less than 1e-05 s⁻¹. In addition, the “self-cleavage kobs at 640 uM GlcN6P” value with glucosamine-6-phosphate [2] is less than 1e-05 s⁻¹. Also, the “self-cleavage kobs at 2500 uM GlcN6P” value in the series with glucosamine-6-phosphate [3] is less than 1e-05 s⁻¹.
Take G9A C10U: the “self-cleavage kobs at 160 uM GlcN6P” value with glucosamine-6-phosphate [1] is less than 1e-05 s⁻¹. Also, the “self-cleavage kobs at 640 uM GlcN6P” value in the series with glucosamine-6-phosphate [2] is less than 1e-05 s⁻¹. For the same variant, in the series with glucosamine-6-phosphate [3], the “self-cleavage kobs at 2500 uM GlcN6P” value was less than 1e-05 s⁻¹. Also, the “self-cleavage kobs at 10000 uM GlcN6P” value with glucosamine-6-phosphate [4] is less than 1e-05 s⁻¹.
Turning to C11G U31A U47G, the “self-cleavage kobs at 160 uM GlcN6P” value with glucosamine-6-phosphate [1] was less than 1e-05 s⁻¹.
A6G A42C: the “self-cleavage kobs at 160 uM GlcN6P” value in the series with glucosamine-6-phosphate [1] is less than 1e-05 s⁻¹. The “self-cleavage kobs at 640 uM GlcN6P” value with glucosamine-6-phosphate [2] is less than 1e-05 s⁻¹. In addition, the “self-cleavage kobs at 2500 uM GlcN6P” value with glucosamine-6-phosphate [3] was less than 1e-05 s⁻¹. In the series with glucosamine-6-phosphate [4], the “self-cleavage kobs at 10000 uM GlcN6P” value is less than 1e-05 s⁻¹.
Turning to U30A A39G A48G C61U, the “self-cleavage kobs at 160 uM GlcN6P” value with glucosamine-6-phosphate [1] is less than 1e-05 s⁻¹. The “self-cleavage kobs at 2500 uM GlcN6P” value in the series with glucosamine-6-phosphate [3] was less than 1e-05 s⁻¹.
As for G41A C67A, the “self-cleavage kobs at 160 uM GlcN6P” value with glucosamine-6-phosphate [1] is less than 1e-05 s⁻¹. For the same variant, the “self-cleavage kobs at 10000 uM GlcN6P” value with glucosamine-6-phosphate [4] was 4.21e-05 ± 8.7e-06 s⁻¹.
